What was measured:
Assay in all cases: cell-based or functional assay
[1] = biological target: EE-GSK3β: human GSK3β with the EFMPME (EE) epitope tag at the N-terminus (human) (UniProt P49841)
[2] = biological target: PRTSSF
[3] = biological target: RPRTSAF
[4] = biological target: RPRTSSPA

EE-GSK3β: human GSK3β with the EFMPME (EE) epitope tag at the N-terminus (human), sequence (P49841 other isoform, or with tags, fused parts or gaps): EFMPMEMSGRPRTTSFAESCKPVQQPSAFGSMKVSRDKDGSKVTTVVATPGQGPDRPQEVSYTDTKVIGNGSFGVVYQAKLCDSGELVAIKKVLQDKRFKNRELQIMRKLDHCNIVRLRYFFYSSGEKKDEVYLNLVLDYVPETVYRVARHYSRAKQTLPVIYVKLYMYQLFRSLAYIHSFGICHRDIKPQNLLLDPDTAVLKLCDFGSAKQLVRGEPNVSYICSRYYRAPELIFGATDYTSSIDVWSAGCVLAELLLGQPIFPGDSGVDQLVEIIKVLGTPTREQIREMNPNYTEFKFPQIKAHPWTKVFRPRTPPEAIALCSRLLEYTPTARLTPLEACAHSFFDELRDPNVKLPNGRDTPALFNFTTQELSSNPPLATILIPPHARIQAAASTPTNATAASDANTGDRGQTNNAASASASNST

Row | Substance | increase in GSK3 activity on PP2A treatment after coexpression in 293 cells [1] | rate of phosphorylation (cell stands under Vmax; may belong to V (0.1 mM)) [2] | rate of phosphorylation (cell stands under Vmax; may belong to V (0.1 mM)) [3] | rate of phosphorylation (cell stands under Vmax; may belong to V (0.1 mM)) [4]
1 | HA-308D/473D-RAC-PKα: constitutively active double mutant (Thr308 and Ser473 changed to Asp) (enzyme) | 85% | – | – | –
2 | HA-KD-RAC-PKα: kinase-dead HA-RAC-PKα in which Lys179 is mutated to Ala (enzyme) | 12% | – | – | –
3 | HA-RAC-PKα immunoprecipitated from IGF-1 stimulated 293 cells (enzyme) | – | 0 | 0 | 0
4 | HA-RAC-PKα: haemagglutinin epitope-tagged wild-type human RAC-PKα (enzyme) | 68% | – | – | –
